Results on 167 variants are retold here after the RNAGym collection of RNA variant scans (doi:10.7554/elife.80360).

B1: CPEB3 Ribozyme (parent)
chain: GGGGGCCACAGCAGAAGCGUUCACGUCGCGGCCCCUGUCAGAUUCUGGUGAAUCUGCGAAUUCUGCUGU

The variants in the data set derive from B1. In words: self-cleavage, relative activity (ratio to wild type); higher = more cleavage; co-transcriptional.
For the variant G2C G5U, the self-cleavage worked out at 0.0585.
For G2C G5C, the self-cleavage came out at 0.0267.
Regarding G3A G65C, the self-cleavage came to 0.338.
On to G1U U69C, for which the self-cleavage turned out to be 0.284.
As for G3A A60C, the self-cleavage is 0.152.
Consider G3A A60G, for which the self-cleavage stood at 0.32.
As to G1U A15U, the self-cleavage is 0.0945.
Take G3A G5C: the self-cleavage amounted to 0.123.
Regarding G2C A8G, the self-cleavage amounted to 0.0226.
For the variant G1U C34U, the self-cleavage stood at 0.147.
For G2C U44A, the self-cleavage was 0.0552.
Take G2C U44G: the self-cleavage worked out at 0.06.
As to G1U U21A, the self-cleavage amounted to 0.054.
In the case of G2U U36G, the self-cleavage stood at 0.0492.
As for G1U G50A, the self-cleavage was found to be 0.139.
G1U U26G: the self-cleavage is 0.0529.
G1U U26A: the self-cleavage is 0.0674.
For G1U G19U, the self-cleavage is 0.0505.
In the case of G1U G19C, the self-cleavage was 0.0611.
G2U A40G: the self-cleavage was found to be 0.0279.
Turning to G2U U55G, the self-cleavage was 0.0565.
For G2U U55C the value was 0.0989; for G3A U46C, 0.597.
The value for G3A U46A was 0.67; that for G3A U49C was 0.705; that for G3A U26C was 0.571.
As for G3A U67A, the self-cleavage amounted to 0.778.
The value for G1U C63G was 0.111; that for G3A U43G was 0.422; that for G3A U43A was 0.356.
As to G3A U43C, the self-cleavage turned out to be 0.41.
Turning to G2A C34G, the self-cleavage was determined as 0.03.
G2A C22A: the self-cleavage is 0.0696.
As for G3A A52C, the self-cleavage was found to be 0.577.
For G1U C57A, the self-cleavage amounted to 0.0933.
For the variant G2A U20A, the self-cleavage was determined as 0.0398.
For G2A U20C, the self-cleavage amounted to 0.0328.
In the case of G3A U36C, the self-cleavage was 0.433.
For G3A U36A the value was 0.0867; for G3A U36G, 0.206; for G2U G5C, 0.0693.
For the variant G2U G5A, the self-cleavage was found to be 0.0678.
With G3A C45G, the self-cleavage stood at 0.536.
For G3A C45A, the self-cleavage was found to be 0.544.
As to G2C U69G, the self-cleavage was 0.0519.
With G3A G31U, the self-cleavage was found to be 0.154.
The value for G3A U55A was 0.395.
The value for G1U G47C was 0.0959.
Regarding G2C U38A, the self-cleavage worked out at 0.0483.
Turning to G3A G56C, the self-cleavage was found to be 0.253.
Regarding G2C C24U, the self-cleavage was found to be 0.0323.
For the variant G1U A52C, the self-cleavage worked out at 0.112.
For G2C G58A the value was 0.0591.
In the case of G2U C57U, the self-cleavage is 0.0179.
For G2U C27A the value was 0.0514; for G2C U20G, 0.0688; for G3C A60U, 0.0697.
On to G1U U38A, for which the self-cleavage is 0.0964.
With G2C G50A, the self-cleavage came out at 0.0951.
For G2C C39G the value was 0.0347; for G2C C39A, 0.108; for G3A G50C, 0.595.
In the case of G3A G50U, the self-cleavage turned out to be 0.582.
As for G2A U53A, the self-cleavage was found to be 0.111.
Regarding G2A U53C, the self-cleavage worked out at 0.104.
Regarding G2U C34U, the self-cleavage stood at 0.103.
The value for G2U G37C was 0.0385; that for G2U U26A was 0.0542; that for G2U U26C was 0.077.
The value for G2U G14A was 0.0496; that for G3A G30U was 0.107; that for G2A G17C was 0.0329.
With G2A A23U, the self-cleavage stood at 0.284.
Take G3A U69C: the self-cleavage was 0.97.
For G2A C18G, the self-cleavage was 0.0324.
Take G2A C18A: the self-cleavage turned out to be 0.0515.
As to G2C C29A, the self-cleavage amounted to 0.0311.
In the case of G2U C63A, the self-cleavage was found to be 0.127.
Regarding G2U C63G, the self-cleavage was 0.102.
Turning to G2U C63U, the self-cleavage came to 0.117.
As for G2C A59G, the self-cleavage stood at 0.106.
Take G2C C54G: the self-cleavage stood at 0.0261.
The value for G3A C7G was 0.112.
As for G3A C7A, the self-cleavage worked out at 0.0813.
For G2U U62C the value was 0.108.
For G2U U62A the value was 0.0777; for G1U G2U, 0.392.
The value for G1U U53C was 0.143; that for G3A G25C was 0.0661.
On to G3A G25A, for which the self-cleavage came to 0.0615.
G3A C39G: the self-cleavage stood at 0.39.
The value for G2U A23G was 0.0867; that for G2U A52U was 0.0917; that for G2U A52G was 0.0867.
Take G1U A16G: the self-cleavage stood at 0.108.
For G1U A16U the value was 0.103; for G2U U46G, 0.0727.
For G2C G48A the value was 0.0788; for G2C U43G, 0.0524.
In the case of G2C G37C, the self-cleavage is 0.0304.
In the case of G2A G65A, the self-cleavage stood at 0.163.
For G2C C18G the value was 0.0398; for G3A C63U, 0.627.
Regarding G2U U21C, the self-cleavage stood at 0.0789.
Consider G3C A42G, for which the self-cleavage worked out at 0.106.
As for G1U G30A, the self-cleavage came to 0.0902.
For G2A U38G, the self-cleavage is 0.0237.
Take G2A G31C: the self-cleavage turned out to be 0.0358.
On to G2A G31U, for which the self-cleavage was found to be 0.0712.
With G2C C22G, the self-cleavage came to 0.02.
For the variant G2C U21C, the self-cleavage was determined as 0.0403.
Take G2U U49G: the self-cleavage came to 0.0431.
As to G2U U49C, the self-cleavage was 0.0667.
On to G2U U49A, for which the self-cleavage was found to be 0.0944.
For the variant G2C G47U, the self-cleavage came out at 0.0378.
Turning to G2C G47A, the self-cleavage stood at 0.0652.
Consider G1C U61A, for which the self-cleavage amounted to 0.253.
In the case of G3C A13G, the self-cleavage was 0.18.
Turning to G1U G37U, the self-cleavage worked out at 0.0468.
For G1U G37C, the self-cleavage was determined as 0.0508.
Take G1C U69C: the self-cleavage was 0.396.
Turning to G1C U69G, the self-cleavage is 0.409.
As to G3C A23U, the self-cleavage turned out to be 0.28.
As to G2C G3U, the self-cleavage is 0.0339.
Consider G2A U61A, for which the self-cleavage is 0.0537.
As for G2A U61G, the self-cleavage was determined as 0.0696.
In the case of G2U G50A, the self-cleavage was 0.0766.
Take G2C G17U: the self-cleavage came to 0.0711.
For G2U C18A the value was 0.0495; for G2U C18U, 0.0941.
Take G1U G5U: the self-cleavage is 0.0243.
For G1U G5A the value was 0.101; for G2A C12U, 0.201.
With G2A C12A, the self-cleavage came out at 0.0566.
G2C G19A: the self-cleavage was determined as 0.0455.
For G1U C18A the value was 0.0311; for G3A A16G, 0.315; for G2A C7G, 0.063.
As for G1U G25U, the self-cleavage stood at 0.0227.
The value for G1U G25A was 0.0632; that for G1U G25C was 0.0418; that for G2U G31A was 0.0769.
In the case of G1U C54U, the self-cleavage amounted to 0.136.
As for G2C C34G, the self-cleavage was found to be 0.0583.
Regarding G3C C6A, the self-cleavage was determined as 0.0513.
On to G1U U61C, for which the self-cleavage was found to be 0.117.
On to G2C U53A, for which the self-cleavage was determined as 0.0158.
For G2C U53C the value was 0.0834; for G3A U53A, 0.44.
With G2U G47A, the self-cleavage was determined as 0.0706.
For G2U A13G, the self-cleavage was found to be 0.0748.
As to G2A G28C, the self-cleavage came out at 0.0268.
With G2U U38C, the self-cleavage came to 0.095.
For the variant G2U U38A, the self-cleavage was found to be 0.0631.
G2C A51U: the self-cleavage was determined as 0.056.
G2U A51C: the self-cleavage was 0.102.
For G1U A10G the value was 0.0897.
Regarding G1U A10C, the self-cleavage was found to be 0.186.
For G1U C35G, the self-cleavage is 0.0241.
On to G1U C9A, for which the self-cleavage stood at 0.181.
For G3A A51G, the self-cleavage was 0.584.
The value for G2U G48C was 0.0769.
As for G3A C33A, the self-cleavage is 0.193.
Take G2A A42G: the self-cleavage was determined as 0.196.
For the variant G3A C34U, the self-cleavage turned out to be 0.91.
For the variant G2U A15G, the self-cleavage turned out to be 0.0981.
The value for G2C C7G was 0.0326.
